Two molecules from patent publication WO2002045743A2 (dated 2002) can be followed below.

Assay [1] addresses S85 peptide. The assay is described as follows: IAsys biosensor, BSA-HVR1 peptide conjugate.
Assay [2] concerns the target S67 peptide. Nature of the assay: IAsys biosensor, BSA-HVR1 peptide conjugate.
The next assay concerns the target S52 peptide. Nature of the assay: peptide EIA, Nunc-Immuno and CovaLab plates.
A further assay deals with DH2 peptide. Nature of the assay: peptide EIA, Nunc-Immuno and CovaLab plates.
Assay [3] addresses S85 peptide. The assay is described as follows: peptide EIA, Nunc-Immuno and CovaLab plates.
The next assay addresses G4309 peptide. The assay is described as follows: peptide EIA, Nunc-Immuno and CovaLab plates.
Another assay concerns the target S54 peptide. The assay is described as follows: peptide EIA, Nunc-Immuno and CovaLab plates.
The target in another assay is S82 peptide. Nature of the assay: peptide EIA, Nunc-Immuno and CovaLab plates.
Assay [4] concerns the target S67 peptide. The assay is described as follows: peptide EIA, Nunc-Immuno and CovaLab plates.
In another assay the target is G3895 peptide. The assay is described as follows: peptide EIA, Nunc-Immuno and CovaLab plates.
Another assay addresses S53 peptide. The assay is described as follows: peptide EIA, Nunc-Immuno and CovaLab plates.
Another assay has as its target EH1 peptide. Nature of the assay: peptide EIA, Nunc-Immuno and CovaLab plates.
For the next assay, the target named is S66 peptide. Nature of the assay: peptide EIA, Nunc-Immuno and CovaLab plates.
A further assay concerns the target S83 peptide. Nature of the assay: peptide EIA, Nunc-Immuno and CovaLab plates.
The next assay deals with G4720 peptide. The assay is described as follows: peptide EIA, Nunc-Immuno and CovaLab plates.
Another assay has as its target US1 peptide. Nature of the assay: peptide EIA, Nunc-Immuno and CovaLab plates.
Another assay has as its target T1, S87 peptide.
T1 construct: Synthetic HVR 1 peptide
T1 peptide: CTGFSKHNNMGSQQKV
Nature of the assay: peptide EIA, Nunc-Immuno and CovaLab plates.

B1: mAb 2P24 (antibody, V domains shown)
V domain 1: EFQLQQSGAELVRPGPLVTLSCKASGFNIKDYYMNWVKQRPEQGLEWIGRIDPKNGNALYDPKFQDKARITADTSSNTAYLQLNSLTSEATAVYYCSSGWLDYWGQGTSLAVYS
V domain 2: DIVMTQSPASLAVFRGQRATISYRASKSVSTSGYSYMHWNQQKPGQPPRLLIYLVSNLESGVPARFSGSGSGTDFTLNIHPVEEEDAATYYCQHIRELTAFGGGTK
The term Kd denotes the concentration at which binding is half-saturated. Lower therefore signals higher affinity. As to B1, the Kd with S85 peptide [1] came to 24.3 nM; in the assay with S67 peptide [2] it was 18.1 nM. Besides, the “EIA Sample/Cutoff ratio (S/CO)” value with S52 peptide came to 1.4 S/CO; in the assay with DH2 peptide it was 18.6 S/CO; with S85 peptide [3], 25.6 S/CO; with G4309 peptide, 1.1 S/CO; in the assay with S54 peptide, 18.9 S/CO; with S82 peptide, 16.1 S/CO. Besides, the “EIA Sample/Cutoff ratio (S/CO)” value stood at 24.7 S/CO in the assay with S67 peptide [4]; 25.4 S/CO in the assay with G3895 peptide; 5.7 S/CO with S53 peptide; 24.8 S/CO with EH1 peptide; 12.7 S/CO in the assay with S66 peptide; 11.5 S/CO with S83 peptide. Further, the “EIA Sample/Cutoff ratio (S/CO)” value in the assay with G4720 peptide came to 24 S/CO.

B2: mAb 15H4 (antibody, V domains shown)
VH: QVQLQQSGAELARPGASVKLSCKASGYTFTRYWMQWVKQKPGQGLEWIGAIYCGDGDTRFTQKFKGKATLTADKSSSTAYMQLSNLASEDSAVYYCVIYGNYYDAMDYWGQGTSVTVSS
VL: DIVMTQAPLSMPVSLGDQASISGRSSQSLVHSNGNTYLHWYLQKPGQSPKLLIHKVSKRFSGVPDRFSGSGSGTDFTLKIRRVEAEDLGVYFCSQNTHVPFTFGGGTK
For B2, the Kd in the assay with S85 peptide [1] stood at 58.5 nM; with S67 peptide [2], 110 nM. Also, the “EIA Sample/Cutoff ratio (S/CO)” value with S52 peptide stood at 1.9 S/CO; with US1 peptide it was 21 S/CO; with DH2 peptide, 12.9 S/CO; with S85 peptide [3], 24.4 S/CO; with S54 peptide, 3.9 S/CO; with S82 peptide, 3.3 S/CO. The “EIA Sample/Cutoff ratio (S/CO)” value is 25.1 S/CO in the assay with S67 peptide [4]; 7.9 S/CO with G3895 peptide; 16.9 S/CO in the assay with EH1 peptide; 8.9 S/CO with S87 peptide; 24.8 S/CO in the assay with S66 peptide; 2.3 S/CO in the assay with S83 peptide. In addition, in the assay with G4720 peptide, the “EIA Sample/Cutoff ratio (S/CO)” value is 14.2 S/CO.
